From patent US20240182549A1 (published 2024)

B1: peptide-IgG 33^LN1 (peptide p16 fused to the N-terminus of the light chain of IgG 15033) (antibody)
heavy: not shown
light: DFDFAENWMEQLKVMLGGGGSGGGGSGGGGSGGGGSDIQMTQSPSSLSASVGDRVTITCRASQSVSSAVAWYQQKPGKAPKLLIYSASDLYSGVPSRFSGSRSGTDFTLTISSLQPEDFATYYCQQSYRYPITFGQGTKVEIKRTVAAPSVFIFPPSDEQLKSGTASVVCLLNNFYPREAKVQWKVDNALQSGNSQESVTEQDSKDSTYSLSSTLTLSKADYEKHKVYACEVTHQGLSSPVTKSFNRGEC
B2: 15031 Fab-IgG (tetravalent) (antibody)
heavy: not shown
light: DIQMTQSPSSLSASVGDRVTITCRASQSVSSAVAWYQQKPGKAPKLLIYSASDLYSGVPSRFSGSRSGTDFTLTISSLQPEDFATYYCQQGSYLFTFGQGTKVEIKRTVAAPSVFIFPPSDEQLKSGTASVVCLLNNFYPREAKVQWKVDNALQSGNSQESVTEQDSKDSTYSLSSTLTLSKADYEKHKVYACEVTHQGLSSPVTKSFNRGEC
B3: 15031 IgG-Fab (tetravalent) (antibody)
heavy: not shown
light: B2 light
B4: peptide-IgG 33^LR1 (peptide p102 fused to the N-terminus of the light chain of IgG 15033) (antibody)
heavy: not shown
light: ECWEWSYQLQEWSPCPGGGGSGGGGSGGGGSGGGGSDIQMTQSPSSLSASVGDRVTITCRASQSVSSAVAWYQQKPGKAPKLLIYSASDLYSGVPSRFSGSRSGTDFTLTISSLQPEDFATYYCQQSYRYPITFGQGTKVEIKRTVAAPSVFIFPPSDEQLKSGTASVVCLLNNFYPREAKVQWKVDNALQSGNSQESVTEQDSKDSTYSLSSTLTLSKADYEKHKVYACEVTHQGLSSPVTKSFNRGEC
B5: IgG 15031 (antibody, V domains shown)
VH: EVQLVESGGGLVQPGGSLRLSCAASGFDLTGSYMHWVRQAPGKGLEWVAGISASGGATAYADSVKGRFTISADTSKNTAYLQMNSLRAEDTAVYYCARSRSSSYSSSGWRYYSGAFDYWGQGTLVTVSS
VL: DIQMTQSPSSLSASVGDRVTITCRASQSVSSAVAWYQQKPGKAPKLLIYSASDLYSGVPSRFSGSRSGTDFTLTISSLQPEDFATYYCQQGSYLFTFGQGTKVEIKR
B6: peptide-IgG 33^HN1 (peptide p16 fused to the N-terminus of the heavy chain of IgG 15033) (antibody)
heavy: not shown
light: DIQMTQSPSSLSASVGDRVTITCRASQSVSSAVAWYQQKPGKAPKLLIYSASDLYSGVPSRFSGSRSGTDFTLTISSLQPEDFATYYCQQSYRYPITFGQGTKVEIKRTVAAPSVFIFPPSDEQLKSGTASVVCLLNNFYPREAKVQWKVDNALQSGNSQESVTEQDSKDSTYSLSSTLTLSKADYEKHKVYACEVTHQGLSSPVTKSFNRGEC
B7: peptide-IgG 33^HR1 (peptide p102 fused to the N-terminus of the heavy chain of IgG 15033) (antibody)
heavy: not shown
light: B6 light

What was measured:
[1] = biological target: T1, SARS-CoV-2 S protein ectodomain trimer (residues 1-1211, foldon trimerization motif, 6xHis tag, AviT (SARS-CoV-2; bacteriophage T4, UniProt P0DTC2 14-1211; P10104 458-484)
[2] = biological target: T1, SARS-CoV-2 S protein ectodomain trimer …; assay: BLI on immobilized S protein ECD
[3] = biological target: T1, SARS-CoV-2 S protein ectodomain trimer …; assay: BLI on immobilized S protein
[4] = biological target: T1, SARS-CoV-2 S protein ectodomain trimer …; assay: ELISA on biotinylated S protein trimer captured with immobilized streptavidin

Row | Binder | Kd [1] [pM] | koff [1] [s⁻¹] | kon [1] [M⁻¹ s⁻¹] | fold improvement of apparent KD relative to IgG 15033 [2] [fold] | binding result [3] | binding result [4]
1 | B1 | < 1 | < 1e-07 | 1.1e+06 | > 100 |  | 
2 | B2 |  |  |  |  | binds | 
3 | B3 |  |  |  |  | binds | 
4 | B4 | 6.1 | 2.2e-06 | 350000 |  |  | 
5 | B5 |  |  |  |  |  | binds
6 | B6 | 24 | 3.8e-05 | 1.6e+06 |  |  | 
7 | B7 | < 1 | < 1e-07 | 1.2e+06 | > 100 |  | 
